Assay results: the RNAGym collection of RNA variant scans (doi:10.1073/pnas.2313332121)

B1: TPR t1 (parent)
chain: GACCAAUCUGCCCUCAGAGCUCGAGAACAUCUUCGGAUGCAGAGGAGGCAGGCUUCGGUGGCGCGAUAGCGCCAACGUCCUCAACCUCCAAUGCAUCCCACCACAUGAUGAUGCCUGAAGAGCCUUGGUUUUUUG

Variants of: B1
Assay: polymerase ribozyme fitness, log enrichment relative to wild type (log ratio); higher = more active; in vitro selection for triplet polymerase activity
Outline: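 Mutant libraries for each subunit of a heterodimeric triplet polymerase ribozyme were made by PCR and then transcribed. Each library underwent one round of in vitro selection in triplicate: annealing with a biotinylated primer, the partner subunit and triplets, frozen incubation at −7 °C, gel excision of extended constructs, streptavidin-bead capture and RT-PCR. Input and output libraries were Illumina-sequenced, and only genotypes with ≥10 input reads and ≥1 read per output were kept. Fitness is the logarithm, base 2, of genotype enrichment over wild-type enrichment, computed from inverse-variance-weighted replicate averages.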

Variant | polymerase ribozyme fitness (log ratio)
GACCAAUCUGCCCUCAGAGCUCGAGAACAUCUUCGGAUGCAGAGGAGUCAGUCUUCGGUGGCGCGAUAGCGCCAACGUCCUCAACCUCCAAUGCAUCCCACAACAUGAUGAUGCCUGAAGAGCCUUGGUUUUUUG | -4.14
GACCAAUCUGCCCUCAGAGCUCGAGAACAUCUUCGGAUGCAGAGGAGUCAGGCUUCCGUGGCGCGAUAGCGCCAACGUCCUCAACCUCCAAUGCAUCCCACCACAUGAUGAUGCCUGAAGAGCCUUGGUUUUUUG | -0.412
GACCAAUCUGCCCUCAGAGCUCGAGAACAUCUUCGGAUGCAGAGGAGUCAGGCUUCGGUGGCGCGAUAGCGCCAACGUCCUCAACCUCCAAUGCAUCCCACCACAUGAUGAUGGCUGAAGAAGCUUGGUUUUUUG | -3.44
GACCAAUCUGCCCUCAGAGCUCGAGAACAUCUUCGGAUGCAGAGGAGUCAGGCUUCGGUGGCGCGAUAGCGCCAACGUCCUCAACCUCCAAUGCAUCCCACAACAUGAUGGUGCCUGAAGAGCCUUGGUUUUUUG | -1.65
GACCAAUCUGCCCUCAGAGCUCGAGAACAUCUUCGGAUGCAGAGGAGUCAGGCUUCGGUGGCGCGAUACCGCCAACGUCCUCAACGUCCAAUGCAUCCCACCACAUGAUGAUUCCUGAAGAGCCUUGGUUUUUUG | -6.36
GACCAAUCUGCCCUCAGAGCUCGAGAACAUCUUCGGAUGCAGAGGAGUCAGGCUUCGGUGGCGCGAUAGCGCCAACGUCCUCAACAUCCACUGCAUCCCACCACAUGAUGAUGCCUGAAGAGCCUUGGUUUUUUG | -1.98
GACCAAUCUGCCCUCAGAGCUCGAGAACAUCUUCGGAUGCAGAGGAGUCAGGCUUCGGUGGCGCGAUAGCGCCAACGUCCUCAACCUCCAAUGCAUCCCACCACAUGAUGAUGUCUGAAGAGCCUUGGUUUUUUG | -2.73
GACCAAUCUGCCCUCAGAGCUCGAGAACAUCUUCGGAUGCAGAGGAGUCACGCUUCGGUGGCGCGAUAGCGCCAACGUCCUCAACCUCCAAUGCCUCCCACCACAUGAUGGUGCCUGAAGAGCCUUGGUUUUUAG | -4.35
GACCAAUCUGCCCUCAGAGCUCGAGAACAUCUUCGGAUGCAGAGGAGUCAGGCUUCGGUGGCGCGAUAGCGCCAACGUCCUCAAGCUCUAAUGCAUCCCACCACAUGAUGAUGCCUGAAGAGCCUUGGUUUUUUG | -0.48
GACCAAUCUGCCCUCAGAGCUCGAGAACAUCUUCGGAUGCAGAGGAGUCAGGCUUCGUUUGCGCGAUAGCGCCAACGUCCUGAACCUCCAAUGCAUCCCACCACAUGAUGAUGCCUGAAGAGUCUUGGUUUUUUG | 0.461
GACCAAUCUGCCCUCAGAGCUCGAGAACAUCUUCGGAUGCAGAGGAGUCAGGCUUCGGUGGCGCGAUAGCGCCAACGUCCUCAACCUCCAAUGCAUCCCACCACAUGAUAAUGCCUGAAGAGCCUUGGUUUUUUG | -1.84
GACCAAUCUGCCCUCAGAGCUCGAGAACAUCUUCGGAUGCAGAGGAGUCAGGCUUCGGUGGCGCGAUAGCGCCAACGUCCUCAACCUCCAAUACAUCCCACCACAUGAUGAUGCCUGAAAAGCCUUGGUUUUUUG | -0.388
GACCAAUCUGCCCUCAGAGCUCGAGAACAUCUUCGGAUGCAGAGGAGUCAGGCUUCGGUGGCGCGAUAACGCCAACGUCCUCAAGCUCCAAUGCAUCCCACCACAUGAUGAUGCCUGAAGAGCCUUGGUUUUUUG | -3.42
GACCAAUCUGCCCUCAGAGCUCGAGAACAUCUUCGGAUGCAGAGGAGUCAGGCUUCGGUGGCGCGAUAGCGCCAACGUUCUCAACCUCCAAUGCAUCCCACCACAUGAUGAUGCCUGAAGAGCCUUGGUUUUUUG | -2.53
GACCAAUCUGCCCUCAGAGCUCGAGAACAUCUUCGGAUGCAGAGGAGUCAGGCUUCGGUGGCGCGAUAGCUCCAACGUCCUCAACCUCCAAUGCAUCCCACCACAUGAUGAUGUCUGAAGAGCCUUGGUUUUUUG | -3.21
GACCAAUCUGCCCUCAGAGCUCGAGAACAUCUUCGGAUGCAGAGGAGUCAGUCUUCGGUGGCGCGAUAGCGCCAACGUCCUCAACCUCCGUUGCAUCCCACCACAUGAUGAUGUCUGAAGAGCCUUGGUUUUUUG | -2.83
GACCAAUCUGCCCUCAGAGCUCGAGAACAUCUUCGGAUGCAGAGGAGUCAGGCUUCGGUAGCGCGAUAGCGCCAACGUCCUCAAGCUCCAAUGCAUCCCACCACAUGAUGAUGCCUGAAGAGCCUUGGUUUUUUG | -0.64
GACCAAUCUGCCCUCAGAGCUCGAGAACAUCUUCGGAUGCAGAGGAGUCAGGCUUCGGUGGCACGAUAGCGCCAACGUCCUCAACCUCCAAUGCAUCCCACCACAUGAUGAUGCCUGAAGAGCCUUGGUUUUUUG | -1.96
GACCAAUCUGCCCUCAGAGCUCGAGAACAUCUUCGGAUGCAGAGGAGUCAGGCUUCGGUGGCGCGAUAGCGCCAACGUCCUCAACCUUCAAUGCAUCCCACCACAUGAUAAUGCCUGAAGAGCCUUGGUUUUUUG | -1.01
GACCAAUCUGCCCUCAGAGCUCGAGAACAUCUUCGGAUGCAGAGGAGUCAGGCUUCGGUGCCGCGAUAGCGCCAACGGCCUCAACCUCCAAUGCAUCUCACCACAUGAUGAUGCCUGAAGAGCCUUGGUUUUUUG | -5.49
GACCAAUCUGCCCUCAGAGCUCGAGAACAUCUUCGGAUGCAGAGGAGUCAGGCUUCGGUGGCGCGAUAGCGCCAACGUCCUCAACCUCCAAUGCAUCCCACCACAUGAUGAUGCCUGAAGAGUCUUGGUUUUUUG | 0.57

Variant | polymerase ribozyme fitness (log ratio)
GACCAAUCUGCCCUCAGAGCUCGAGAACAUCUUCGGAUGCAGAGGAGUCAGGCUUCGGUGGCGCGAUAGCUCCAACGUCCUCAACCUCCAAUGCACCCCACCACAUGAUGAUGCCUGAAGAGCCUUGGUUUUUUG | -1.48
GACCAAUCUGCCCUCAGAGCUCGAGAACAUCUUCGGAUGCAGAGGAGUCAGGCUUCGGUGGCGCGAUAGCGCCAACGUCCUCAACAUCCAAUGCAUCCCACCACAUGAUGAUGCCUGAAGAGCCUUGGUUUUUUG | -0.67
GACCAAUCUGCCCUCAGAGCUCGAGAACAUCUUCGGAUGCAGAGGAGUCAGGCUUCGGUGGCGCGAUAGCGCGAACGUCCUCAACCUCCAAUGCAUCCCACCACAUGAUUAUGCCUGAAUAGCCUUGGUUUUUUG | -4.95
GACCAAUCUGCCCUCAGAGCUCGAGAACAUCUUCGGAUGCAGAGGAGUCAGGCUUCGGUGGCGCGAUAGCGCCAACGUCCUCAACCUCCAAUGCAUCCCACCACAUGAUGAUGCCUGAAGAGCUAUGGUUUUUUG | 0.397
GACCAAUCUGCCCUCAGAGCUCGAGAACAUCUUCGGAUGCAGAGGAGUCAGGCUUCGGUGUCGCGAUAGCGCCAACGUCCUCAACCUCCAAUGCAUCCCACCACAUGAUGAUGCCUGAAGAGCCUUGGUUUUUUG | 0.43
GACCAAUCUGCCCUCAGAGCUCGAGAACAUCUUCGGAUGCAGAGGAGUCAGGCUUCGGUUGCGCGCUAGCGCCAACGGCCUCAACCUCCGAUGCAUCCCACCACAUGAUGAUGCCUGAAGAGACUUGGUUUAUUG | -1.91
GACCAAUCUGCCCUCAGAGCUCGAGAACAUCUUCGGAUGCAGAGGAGUCAGGCUUCGGUGGCGCGAUAGCGCCAACGUCCUCAACCUCCAAUGCAUCCCACCACAUGAUGAUGCCUGAAAAGUCUUGGUUUUUUG | 0.409
GACCAAUCUGCCCUCAGAGCUCGAGAACAUCUUCGGAUGCAGAGGAGUCAGGCUUCGGUGGCGCGAUAGCGCCAAUGUCCUCAACCUCGAAUGCAUCCCACCACAUGAUGAUGCCUGAAGAGCUUUGUUUUCUUG | -2.96
GACCAAUCUGCCCUCAGAGCUCGAGAACAUCUUCGGAUGCAGAGGAGUCAGGCUUCGGUGGCGCGAUAGCGCCAACGUCCUCAACCUCCAAUGCAUCUCACCACAUGAUGAUGCCUGAAGAGCCUUGGUUUUUUG | -1.96
GACCAAUCUGCCCUCAGAGCUCGAGAACAUCUUCGGAUGCAGAGGAGUCAGGCUUCGGUGGCGCGAUAGCUCCAACGUCCACAACCUCCAAUGCAUCCCACCACAUGAUGAUGCCUGAAGAGCUUUGGUUUUUUG | -0.483
GACCAAUCUGCCCUCAGAGCUCGAGAACAUCUUCGGAUGCAGAGGAGUCAGGCUUCGGUGGCGCUAUAGCGCCAACGUCCUCAACCUCCAAUGCAUCCCACCACAUGAUGAUGCCUGAAGAGCCUUGGUUUUUUG | -6.34
GACCAAUCUGCCCUCAGAGCUCGAGAACAUCUUCGGAUGCAGAGGAGUCAGGCUUCGGUGGCGCGAUAGCGCCAACGUCCUCAACCUCCAAUUCAUCCCACCACAUGAUGAUGCCUGAAGAGCCUUGGUUUUUUG | -1.29
GACCAAUCUGCCCUCAGAGCUCGAGAACAUCUUCGGAUGCAGAGGAGUCAGGCUUCGUUGGCGCGAUAGCGUCAACGUCCUCAACCUCCAAUGCAUCCCACCACAUGAUGAUGCCUGAAGAGCCUUGGUUUUUUG | 0.601
GACCAAUCUGCCCUCAGAGCUCGAGAACAUCUUCGGAUGCAGAGGAGUCAGGCUUCGGUGGCGCGAUAGCACCAACGUCCUCAACCUCCAAUGCAUCCCACCACAUGAUGAUGCCUGAAGAGCCUUGGUUUUUUG | -1.06
GACCAAUCUGCCCUCAGAGCUCGAGAACAUCUUCGGAUGCAGAGGAGUCAGGCUUCGGUGGCGCGAUAGCUCCAACGUCCUCAACCUCCAAUGCAUCCCACCACAUGAUGAUGCCUGAAGAGCCUUGGUUUUUUG | -1.01
GACCAAUCUGCCCUCAGAGCUCGAGAACAUCUUCGGAUGCAGAGGAGUCAGGCUUCGGUGGCGCGAUAGCGCCAACGUCCUCAACCUCCAAUGCAUCCCAACACAUGAUGAUGCCGGAAGAGCCUUGGUAUUUUG | -4.7
GACCAAUCUGCCCUCAGAGCUCGAGAACAUCUUCGGAUGCAGAGGAGUCAGGCUUCGGUGGCACGAUAGCGCCAACGUCCUCAACCUCCAAUGCAUCCCACCACAUGAUUAUGCCUGAAGAGCCUUGGUUUUUUG | -4.15
GACCAAUCUGCCCUCAGAGCUCGAGAACAUCUUCGGAUGCAGAGGAGUCAGGCUUCGGUGGCGCGAUAGCGCCAACGUCCUCAACCUCCAAUGCAUGCCACCACAUGAUGAUGCCUGAAGAGCCUUGGUUUUUUG | -4.5
GACCAAUCUGCCCUCAGAGCUCGAGAACAUCUUCGGAUGCAGAGGAGUCAGGCUUCGGUGGCGCGAUAGCGCCAACGUCCUCAACCUCCAAUGCAUCCCACCACAUGAUUAUGCCUGAAGAGCCAUGGUUUUUUG | -2.52
GACCAAUCUGCCCUCAGAGCUCGAGAACAUCUUCGGAUGCAGAGGAGUCAGGCUUCGGUGGCGCGAUAGCGCCAACGUCCUCAACCUCGAAUGCAUCCCACCACAUGAUGAUGCCUGAAGAGCCUUGGUUUUUUG | -1.92
GACCAAUCUGCCCUCAGAGCUCGAGAACAUCUUCGGAUGCAGAGGAGUCAGGCUUCGGUGGCGCGAUACCGCCAACGUCCUCAACCUCCAAUGCAUCCCACCACAUGAUGAUGCCUGAAGAGCCUUGGUUUUUUG | -2.22
